From the supplement of paper PMC9732359 come the findings set out here.

± gives the uncertainty stated by the source.

The nature of the data set: protein stability index of a GFP-peptide fusion (yeast GPS) (PSI 1-4); higher = more stable; sorted into four equal gates, so the index is relative within each strain. The essentials: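 Tiled yeast protein peptides of 17 residues were each joined downstream of GFP, on plasmids that also express Cherry. The pooled library was maintained in yeast, and mid-log cultures in leucine-free medium were sorted into four equal gates on the GFP/Cherry ratio. Plasmids from every gate were amplified by PCR and sequenced on Illumina, with barcodes linking reads to strains. The protein stability index of a peptide is its gate-number-weighted read frequency summed over the gates.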

In the case of PVRTIVPISTSQTNNSF [SIR4], the protein stability index (doa10∆) was 2.04 ± 0.04, the protein stability index (pdr5∆) worked out at 2.2 ± 0.047, the protein stability index (san1∆) was determined as 2.22 ± 0.052 and the protein stability index (ubr1∆) is 2.28 ± 0.034.

As for PWVVYLQILAMLLLNIF [YMR129W/POM152], the protein stability index runs as follows: (doa10∆) 1.19 ± 0.1; (pdr5∆) 1.96 ± 0.072; (san1∆) 1.18 ± 0.16; (ubr1∆) 1.16 ± 0.08.

PYEMYKYVHVSEVGNCS [FAS2] had a protein stability index (doa10∆) of 2.23 ± 0.056, a protein stability index (pdr5∆) of 2.53 ± 0.062, a protein stability index (san1∆) of 2.11 ± 0.068 and a protein stability index (ubr1∆) of 2.11 ± 0.048.

Take QAIITERLVEFSNVNEL [YIL149C/MLP2]: the protein stability index is, setting by setting: (doa10∆) 2.72 ± 0.19; (pdr5∆) 3.38 ± 0.1; (san1∆) 3.58 ± 0.15; (ubr1∆) 3.31 ± 0.12.

As to QAIKEASYVNIPVIALT [RPS0A], the protein stability index is, setting by setting: (doa10∆) 2.07 ± 0.068; (pdr5∆) 2 ± 0.061; (san1∆) 2.15 ± 0.12; (ubr1∆) 1.78 ± 0.057.

Take QAISYLHKLQRMRLRAL [GRR1]: the protein stability index is 1.77 ± 0.057 (doa10∆), 1.74 ± 0.053 (pdr5∆), 1.8 ± 0.055 (san1∆) and 1.49 ± 0.028 (ubr1∆).

QANQVKRHSYAQSSHIR [RPS1A]: the protein stability index came out at 2.528 ± 0.023 (doa10∆), 2.622 ± 0.021 (pdr5∆), 2.564 ± 0.025 (san1∆) and 2.471 ± 0.019 (ubr1∆).

With QANTEPENITKREASRG [MCD1], the protein stability index was 3.01 ± 0.079 (doa10∆), 2.84 ± 0.073 (pdr5∆), 3.03 ± 0.06 (san1∆) and 3.13 ± 0.047 (ubr1∆).

On to QAPKQRRRTYRAHGRIN [RPL17A], for which the protein stability index runs as follows: (doa10∆) 2.06 ± 0.29; (pdr5∆) 2.64 ± 0.12; (san1∆) 1.9 ± 0.18; (ubr1∆) 2.09 ± 0.091.

As to QARIILNHILEKSTQLQ [YGR119C/NUP57], the protein stability index runs as follows: (doa10∆) 2.83 ± 0.12; (pdr5∆) 3.09 ± 0.072; (san1∆) 2.63 ± 0.12; (ubr1∆) 2.79 ± 0.043.

Consider QARTATLKYICAECSSK [RPC10], for which the protein stability index is, setting by setting: (doa10∆) 2.72 ± 0.12; (pdr5∆) 2.98 ± 0.1; (san1∆) 2.84 ± 0.065; (ubr1∆) 2.79 ± 0.073.

For QCCEFMTMLTPNYLHLV [YML103C/NUP188], the protein stability index worked out at 2.23 ± 0.05 (doa10∆), 1.77 ± 0.045 (pdr5∆), 1.66 ± 0.084 (san1∆) and 1.68 ± 0.041 (ubr1∆).

For QDSIFQRIIADLSADKP [SRB8], the protein stability index runs as follows: (doa10∆) 2.63 ± 0.046; (pdr5∆) 2.56 ± 0.057; (san1∆) 2.59 ± 0.048; (ubr1∆) 2.52 ± 0.032.

As for QDVAAKCKEVGITAVHV [RPS14B], the protein stability index runs as follows: (doa10∆) 2.44 ± 0.059; (pdr5∆) 2.7 ± 0.068; (san1∆) 2.8 ± 0.065; (ubr1∆) 2.18 ± 0.037.

On to QDVDDAHAIDQMTWRQW [POP8], for which the protein stability index amounted to 2.1 ± 0.058 (doa10∆), 1.99 ± 0.052 (pdr5∆), 1.78 ± 0.069 (san1∆) and 2.5 ± 0.076 (ubr1∆).

For the sequence QEAFKIYQHLASHNEKD [SRP72], the protein stability index stood at 1.89 ± 0.082 (doa10∆), 3.08 ± 0.1 (pdr5∆), 2.93 ± 0.15 (san1∆) and 2.89 ± 0.1 (ubr1∆).

Take QEEFVQFLQLDNDGFSF [ECM29]: the protein stability index was 1.9 ± 0.087 (doa10∆), 3.13 ± 0.12 (pdr5∆), 1.93 ± 0.11 (san1∆) and 2.41 ± 0.11 (ubr1∆).

Regarding QEPFLNSSNYAELFNND [PRP8], the protein stability index was found to be 2.61 ± 0.051 (doa10∆), 2.86 ± 0.046 (pdr5∆), 2.55 ± 0.071 (san1∆) and 2.82 ± 0.048 (ubr1∆).

With QEQLKNVKNDVSFNDSQ [YIL149C/MLP2], the protein stability index was 3.27 ± 0.061 (doa10∆), 3.5 ± 0.066 (pdr5∆), 3.08 ± 0.083 (san1∆) and 3.31 ± 0.053 (ubr1∆).

For the sequence QERQRQIQKNGPEITPE [PRP8], the protein stability index came to 2.88 ± 0.11 (doa10∆), 3.2 ± 0.11 (pdr5∆), 2.77 ± 0.11 (san1∆) and 2.85 ± 0.092 (ubr1∆).

Consider QESFVPNSERSGTPTLK [YOR098C/NUP1], for which the protein stability index reads like this: (doa10∆) 3.03 ± 0.16; (pdr5∆) 2.25 ± 0.15; (ubr1∆) 1.79 ± 0.19.

On to QEYLNPVIDTQIANEFN [YDL116W/NUP84], for which the protein stability index is, setting by setting: (doa10∆) 2.85 ± 0.053; (pdr5∆) 2.96 ± 0.058; (san1∆) 2.71 ± 0.046; (ubr1∆) 2.88 ± 0.052.

In the case of QFKTTIKDTANDNDITV [UBP6], the protein stability index (doa10∆) was 2.45 ± 0.11, the protein stability index (pdr5∆) was 2.09 ± 0.074, the protein stability index (san1∆) amounted to 2.19 ± 0.084 and the protein stability index (ubr1∆) worked out at 1.67 ± 0.041.

Consider QFLRLIFVSILSDRANK [ARP9], for which the protein stability index reads like this: (doa10∆) 1.64 ± 0.065; (pdr5∆) 1.65 ± 0.075; (san1∆) 2.18 ± 0.087; (ubr1∆) 1.2 ± 0.027.

Regarding QFTGFLLHEMTQTYMQM [GRR1], the protein stability index was 1.92 ± 0.054 (doa10∆), 2.08 ± 0.036 (pdr5∆), 2.2 ± 0.051 (san1∆) and 1.9 ± 0.041 (ubr1∆).

QGDEALSVDDIRGAVGN [RTT102]: the protein stability index was 3.35 ± 0.096 (doa10∆), 3.49 ± 0.12 (pdr5∆), 3.24 ± 0.059 (san1∆) and 3.41 ± 0.085 (ubr1∆).
